The source of these data is patent publication US20230331852A1 (OSE IMMUNOTHERAPEUTICS, published 2023).

The target of assay [1] is T1, human CLEC-1A expressed on the cell membrane (human, UniProt Q8NC01 1-280).
T1 construct: Endogenous on human U266 myeloma cells, on monocyte-derived TGFb-DC and macrophages; on CHO cells after transduction with a Clec-1 expressing lentivirus; also called U266 CLEC1; CLEC-1A on U266 cells
T1 sequence: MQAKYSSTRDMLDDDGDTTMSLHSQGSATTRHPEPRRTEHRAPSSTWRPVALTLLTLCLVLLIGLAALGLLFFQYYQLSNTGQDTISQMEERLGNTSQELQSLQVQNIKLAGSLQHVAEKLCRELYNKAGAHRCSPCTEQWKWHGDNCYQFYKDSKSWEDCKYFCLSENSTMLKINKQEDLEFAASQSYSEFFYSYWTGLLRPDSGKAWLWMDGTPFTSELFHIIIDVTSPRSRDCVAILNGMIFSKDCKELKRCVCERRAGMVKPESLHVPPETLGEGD
Kind of assay: flow cytometry on U266 cells. The protocol: (§1) Method: To measure binding of anti-CLEC1 on human U266 cell lines (pre-blocked with Fcblock to blocking FcR), antibodies at different concentrations were incubated for 30 min at 4° C., and washed before stained 30 min at 4° C. with PE-labelled anti-human IgG (Biolegend; reference 409304). Samples were analyzed on Cytoflex cytofluorometer (Beckman Coulter). The MFI of anti-CLEC1 was compared between all anti-CLEC1 antibodies and percentage of stained cells was analysed in all conditions.
(In general: Flow cytometry measures light scatter and fluorescence of single cells or particles in a stream.)

The target in assay [2] is T2, recombinant human CLEC-1 protein with His Tag (#1704-CL R&D Systems) (human, UniProt Q8NC01 74-280).
T2 construct: Bought protein; also called His-CLEC1; His Clec-1; not shown: His tag
T2 sequence: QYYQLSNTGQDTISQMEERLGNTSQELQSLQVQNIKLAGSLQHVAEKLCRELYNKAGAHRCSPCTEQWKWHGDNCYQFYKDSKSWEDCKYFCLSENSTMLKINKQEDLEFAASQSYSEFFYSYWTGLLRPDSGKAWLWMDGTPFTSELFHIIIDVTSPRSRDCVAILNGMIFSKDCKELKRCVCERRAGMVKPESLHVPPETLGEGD
Kind of assay: ELISA on immobilised His-CLEC1 (from FIGURE 12). As to the method:
Method: The binding activity of the anti-hCLEC1 antibodies was assessed by ELISA (Enzyme-linked immunosorbent assay). […] A second ELISA assays was performed, like above, with immobilization of CLEC1-Fc (OSE Immunotherapeutics) at 2 μg/ml. A third ELISA assays was performed to see the cross-reactivity with mouse CLEC1. Like above, ELISA was made with immobilization of mouse Fc-CLEC1 (OSE Immunotherapeutics) at 2 μg/ml in carbonate buffer instead of His-Clec. Purified antibodies were added at different concentrations to measure binding. […] Control antibody is a commercial anti-CLEC-1A antibody.
(In an ELISA, binding on a coated surface is turned into a signal by an enzyme label.)

Assay [3] has as its target T1, human CLEC-1A expressed on the cell …. Kind of assay: flow cytometry on U266 cells, PE anti-human IgG; median fluorescence. The protocol:
as §1

Assay [4] concerns the target T2, recombinant human CLEC-1 protein with …. Kind of assay: BLI (Blitz), CLEC1-His on Ni-NTA biosensor, antibody at 20 ug/mL; chimeric antibody, FIG. 17. As to the method: Analysis was performed with a BLItz System (Fortébio, #C22-2 No 61010-1, Molecular Devices, San José, USA).
The affinity of the anti-hCLEC1 antibodies, was measured with Blitz system (Forté Bio, C22-2 No 61010-1).

The target in assay [5] is T3, Fc-CLEC1 labelled with Alexa Fluor 488 (human, Alexa Fluor 488 label (sites not given)).
T3 construct: also called Fc-CLEC1-A488; Alexa488-Fc-Clec-1
T3 chain: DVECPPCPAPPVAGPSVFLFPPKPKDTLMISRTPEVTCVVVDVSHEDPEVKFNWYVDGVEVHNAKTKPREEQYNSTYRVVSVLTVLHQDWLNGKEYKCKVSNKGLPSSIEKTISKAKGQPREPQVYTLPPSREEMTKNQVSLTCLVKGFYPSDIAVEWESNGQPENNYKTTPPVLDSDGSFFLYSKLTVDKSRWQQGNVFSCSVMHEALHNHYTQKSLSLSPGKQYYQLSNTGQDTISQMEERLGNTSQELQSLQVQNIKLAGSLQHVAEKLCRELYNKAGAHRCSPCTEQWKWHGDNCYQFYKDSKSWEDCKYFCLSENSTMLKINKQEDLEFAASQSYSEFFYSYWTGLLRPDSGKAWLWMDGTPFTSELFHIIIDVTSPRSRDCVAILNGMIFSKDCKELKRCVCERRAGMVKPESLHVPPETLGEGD
The assay is described as follows: FACS competition: blocks Fc-CLEC1-A488 (10 nM) binding to CLEC-1 ligand on UV-treated PBMC. As to the method: Competition were also measured on UV pre-treated pro-apoptotic human PBMCs, which can also express the ligand after a treatment under UV radiation for 18 hours. After UV treatment, cells were first washed in cold-PSE and then blocked during 30 min at room temperature with human Fc-block 50-fold diluted in PSE, and then replaced on ice. Purified anti-Clec antibodies at different concentrations were pre-incubated with Alexa488-Fc-Clec-1 in PSE at different concentrations for 15 min at room temperature. Pre-incubated mixes were then incubated on Fc-blocked/SAB (#34005-100, Invitrogen, Illkirch, France) pro-apoptotic PBMCs for 30 min on ice. Binding on cells were then fixed by PFA 2% in cold PBS for 10 min on ice and analyzed on CytoFlex cytofluorometer (Beckman Coulter France, Villepinte).
Methods. To measure competition on permeabilised Raji (CytoFix/cytoperm kit, BD Biosciences) which expressed CLEC1 ligand, Fc-CLEC1-labelled A488 which bound specifically to permeabilised Raji was used. To measure competition, Fc-CLEC1 labelled A488 at 10 nM or 20 nM was mixed with mouse anti-hCLEC1 at different concentrations for 15 min at RT then added on these cells for 30 min at 4° C. […] To measure competition on PMBC, we used human PBMC pre-treated by UV for 18 h to obtain apoptotic PBMC, which expressed CLEC1 ligand. Fc-CLEC1-labelled A488 bound specifically apoptotic UV-treated PBMC. To measure competition, Fc-CLEC1 labelled A488 at 10 nM was mixed with mouse anti-hCLEC1 at different concentrations for 15 min at RT then added on these cells for 30 min at 4° C.

B1: chimeric anti-CLEC-1A antibody 14H9 (antibody, human IgG4 S228P, kappa, V domains shown)
VH: QVQLKESGPGLVAPSQSLSITCTISGFSLTTYGIHWVRQPPGKGLEWLVVIWSDGSTIYNSALKSRLSISKDNSKSQVFLKMNSLQTDDTAIYYCARHGGYYNYFDYWGQGTTLTVSS
VL: DIQMNQSPSSLSASLGDTITITCHASQNINVWLSWYQQKPGNIPKLLIYKASNLHTGVPSRFSGSGSGTTFTLTIDSLQPEDIATYYCQQGQSYWTFGGGTKLEIKR
notes: also called 14H9chim; 14H9-VHwt-FcG4m / 14H9-VLwt-CLhk
B1: the EC50 (in general, the midpoint of the concentration-response curve) in assay [1] worked out at 0.113 µg/mL; in assay [2] it was 0.148 µg/mL. Besides, the EC50 (read off the curve) (usually the concentration giving half of the maximal effect) in assay [3] was approximately 0.06 µg/mL. Further, the Kd (commonly the free concentration of one partner at which half of the binding sites on the other are occupied at equilibrium, for simple one-to-one binding) in assay [4] is approximately 10 nM. Further, the concentration for half-maximal inhibition (IC50) (as a rule, the concentration needed to halve the response being measured) in assay [5] came to 0.873 µg/mL.
